The source of these data is patent publication US20040210041A1 (published 2004).

Assay [1] has as its target T1, KDR (VEGFR-2), full-length receptor on cells (human, UniProt P35968 20-1356). Put plainly: cell-based or functional assay.
In assay [2] the target is T1, KDR (VEGFR-2), full-length receptor on …. Description: competition with 300 pM 125I-VEGF on KDR-transfected 293H cells; peptide 30 µM.
Procedure: (§1) Cells were used 24 h after transfection, and to prepare the cells for the assay, they were washed 3 times with room temperature Ml 99 medium and placed in the refrigerator. […] Each dilution was added to three separate wells of mock and KDR transfected cells. Aflter incubating at 4° C. for 2 h, the plates were washed 5 times with cold binding buffer, gently blotted dry and checked under a microscope for cell loss. 100 μL of solubilizing solution (2% Triton X-100, 10% Glycerol, 0.1% BSA) was added to each well and the plates were incubated at room temperature for 30 minutes. The solubilizing solution in each well was mixed by pipeting up and down, and transferred to 1.2 mL tubes. Each well was washed twice with 100 μL of solubilizing solution and the washes were added to the corresponding 1.2 mL tube.
The target is the same in assay [3]. Description: competition with 300 pM 125I-VEGF on KDR-transfected 293H cells; peptide 0.3 µM.
Procedure: as §1

Positions of bridges follow the written chain, without caps; N, C: chain ends. Where only a bound is given, the exact number is not on record here.

T1 sequence (P35968 20-1356): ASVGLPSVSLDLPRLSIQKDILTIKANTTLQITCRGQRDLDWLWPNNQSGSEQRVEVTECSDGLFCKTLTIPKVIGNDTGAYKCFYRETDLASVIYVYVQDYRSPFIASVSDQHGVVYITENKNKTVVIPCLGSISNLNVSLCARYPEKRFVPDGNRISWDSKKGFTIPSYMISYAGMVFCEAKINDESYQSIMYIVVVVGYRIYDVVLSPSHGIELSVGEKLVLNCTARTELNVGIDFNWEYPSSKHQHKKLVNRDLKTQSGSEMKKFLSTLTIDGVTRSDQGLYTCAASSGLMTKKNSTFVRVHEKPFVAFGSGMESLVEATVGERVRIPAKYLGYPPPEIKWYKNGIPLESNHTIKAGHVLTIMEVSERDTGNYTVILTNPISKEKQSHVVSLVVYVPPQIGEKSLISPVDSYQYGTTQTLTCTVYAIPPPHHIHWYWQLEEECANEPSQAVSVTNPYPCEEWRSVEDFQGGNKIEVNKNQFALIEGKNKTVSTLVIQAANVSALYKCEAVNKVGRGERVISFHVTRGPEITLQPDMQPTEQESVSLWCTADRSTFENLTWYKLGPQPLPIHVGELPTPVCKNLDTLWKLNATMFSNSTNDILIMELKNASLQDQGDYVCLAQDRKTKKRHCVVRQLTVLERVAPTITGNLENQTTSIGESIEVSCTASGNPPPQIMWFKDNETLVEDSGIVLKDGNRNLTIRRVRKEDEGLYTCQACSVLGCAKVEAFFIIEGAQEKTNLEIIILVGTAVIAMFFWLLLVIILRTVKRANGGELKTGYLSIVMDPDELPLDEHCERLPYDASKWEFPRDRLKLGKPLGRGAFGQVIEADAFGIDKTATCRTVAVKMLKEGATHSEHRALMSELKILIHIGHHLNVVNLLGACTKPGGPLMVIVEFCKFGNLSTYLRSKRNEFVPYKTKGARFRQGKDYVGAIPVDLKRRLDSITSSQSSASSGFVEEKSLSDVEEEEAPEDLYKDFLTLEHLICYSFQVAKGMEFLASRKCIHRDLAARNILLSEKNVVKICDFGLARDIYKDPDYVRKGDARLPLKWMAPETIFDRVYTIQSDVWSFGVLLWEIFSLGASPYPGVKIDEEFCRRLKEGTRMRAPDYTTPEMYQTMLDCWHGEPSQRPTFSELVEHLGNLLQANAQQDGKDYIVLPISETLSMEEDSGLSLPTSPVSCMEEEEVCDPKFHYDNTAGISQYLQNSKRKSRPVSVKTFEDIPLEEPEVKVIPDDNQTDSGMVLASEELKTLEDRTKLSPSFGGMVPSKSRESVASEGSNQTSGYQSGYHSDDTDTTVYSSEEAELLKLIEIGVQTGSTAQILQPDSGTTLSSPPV

For Ac-AGWIECYHPDGICYHFGTGGGK-NH2 (disulfide 6-13 (inferred)) [P2-D], in assay [1], the “inhibition of VEGF-induced KDR phosphorylation” value was ≥ 50 % inhibition at 10 µM.

As to Ac-GDSRVCWEDSWGGEVCFRYDPGGGK-NH2 (disulfide 6-16 (inferred)) [P6-D], in assay [1], the “IC50, receptor activation assay” value was 1000 nM and the “inhibition of VEGF-induced KDR phosphorylation” value was ≥ 50 % inhibition at 10 µM. Moreover, the “% inhibition of 125I-labeled VEGF binding” value in assay [2] came out at 96.3%. Besides, in assay [3], the “% inhibition of 125I-labeled VEGF binding” value came to 52.3%.
